Source: PMC11298593, “ArcS from Thermococcus kodakarensis transfers L-lysine to preQ0 nucleoside derivatives as minimum substrate RNAs” (The Journal of Biological Chemistry, 2024)

Experiments:
purified protein [1] = substrate: N#Cc1cn([C@@H]2O[C@H](COP(=O)(O)O)[C@@H](O)[C@H]2O)c2nc(N)[nH]c(=O)c12; test: purified protein; format: biochemical, Thermococcus kodakarensis; conditions: 200 μM lysine co-substrate, pH 7.6, 5 mM MgCl2, 50 mM KCl, no 2-mercaptoethanol, 60 °C, unit μM from text b23 (table heading prints μmol)
purified protein [2] = substrate: NCCCC[C@H](N)C(=O)O; test: purified protein; format: biochemical, Thermococcus kodakarensis; conditions: 204 μM S. cerevisiae tRNA-Phe-preQ0 co-substrate, pH 7.6, 5 mM MgCl2, 50 mM KCl, 60 °C, labelled compound, unit μM from text b13 (table heading prints μmol)

B1: ArcS and RaSEA complex (ArcS-RaSEA complex) (Thermococcus kodakarensis KOD1) (protein)
chain: MEVIKHEGPGRLGVVRLGDYSFRTPALVGIDFTLSPFNSFFHPKEPGEYDFNLAPSIPLGFYTPDEVIQKAIGRLWSVNYDGFNAFYLPALRRTEYLEEFFKIIDRHNFDAVYLGNSKILIKEYRYFVRILRELRERFPNVMIIADLEPFFYPLAVYLGIDAFDTRSLKLYDFEGKGFTQFSPFLWSNEPNSLDFAREVILLVRKALEEGKLRYLVENFFPTQYNAGILRIADLEHPDYLEKYTPIQKETVYFISDASIRRPEVKRWHERVLERFTPPKNVELLLLFPCSAKKPYSFSRSHTLYRRAVKEALGSGTSKVHELILTSPFGVVPREWEWLAKYDIVVTGHWSEEEIKPAAELLAKTLEKYPEDIPIVAHLDEAYVEIAKLASELSGREIIFTDVKNGTTSHESLRSLTETLREFQIEGTKEDRTYRYFENIRKVFDFYFGVGAGEAILPENGQVKGSKMLRIFVEGQQTGTFTDGVISVTPYGMQRIYDALKSYWVKIDFELRGDVFAVGVEEADPRIRPDDIVGIVRDEKVVGVGKAVLSGEEMVRAKKGVAVKVRKRV
notes: recombinant complex expressed in E. coli, purified aerobically (RaSEA apo, no Fe-S cluster); His x 6-ArcS given for the co-expression; with Archaeosine synthase subunit beta
- Km (purified protein [1]): 433.4 ± 6.0 µM
- kcat (purified protein [1]): 0.387 ± 0.0617 s⁻¹
- Km (purified protein [2]): 40.9 ± 8.7 µM
- kcat (purified protein [2]): 0.102 ± 0.0117 s⁻¹
